Assays:
[1] = test system: T1, C[C@H](NC(=O)[C@H](C)NC(=O)[C@@H](NC(=O)[C@@H](NC(=O)[C@H](CCC(=O)O)NC(=O)[C@@H]1CCCN1C(=O)[C@@H]1CCCN1C(=O)[C@H](C)NC(=O)[C@H](CO)NC(=O)[C@H](CO)NC(=O)[C@H](CO)NC(=O)[C@@H]1CCCN1C(=O)[C@@H]1CCCN1C(=O)[C@H](C)NC(=O)[C@@H]1CCCN1C(=O)[C@@H](NC(=O)[C@@H](NC(=O)[C@H](C)NC(=O)[C@H](CO)NC(=O)[C@@H]1CCCN1C(=O)[C@@H](NC(=O)[C@@H]1CCCN1C(=O)[C@@H]1CCCN1C(=O)[C@@H](N)CS)[C@@H](C)O)[C@@H](C)O)[C@@H](C)O)[C@@H](C)O)[C@@H](C)O)C(=O)O; experiment: GalNAc-transferase assay with purified recombinant GalNAc-T2; type: biochemical, human; settings: other: acceptor substrate; pH 7.5
T1 construct: Control constructs pAcGP67-GalNAc-T1-sol, pAcGP67-GalNAc-T2-sol, pAcGP67-GalNAc-T3-sol, and pAcGP67-O^2-sol were prepared as previously described; made in house; host or cells: insect cells (baculovirus, pAcGP67)
Method: The following examples are provided to illustrate certain preferred embodiments of the invention, and should be considered as illustration and not as limitation. In the examples, GalNAc-transferase assays were performed in 50 μl total reaction mixtures containing 25 mM cacodylate (pH 7.5), 10 mM MnCl2, 0.1-0.25% Triton X-100, 150-200 μM UDP-[^14C]-GalNAc (4,000 cpm/nmole) (Amersham) and 0.06-1 mM acceptor peptides. Peptides were either synthesized or obtained from Carlbiotech (Copenhagen), or Neosystems (Strasbourg), and quality was ascertained by amino acid analysis and mass spectrometry. […] Products were quantified by scintillation counting after chromatography on Dowex-1, octadecyl silica cartridges (Bakerbond), or HPLC (PC3.2/3 or mRPC C2/C18 SC2.1/10 Pharmacia, Smart System). […]
Activities measured with the mucin derived substrates, Muc7, EA2, and Muc2 (see Table I for structures and SEQ ID NOs:19, 25 and 18, respectively), were only 2-7 fold over background values. […] GalNAc-T4 was expressed in High Five cells and purified to near homogeneity, however, very low endogenous activity was detected with some substrates in the same fractions when medium from cells infected with irrelevant expression constructs were used in the same purification strategy. […]

[2] = test system: T2, C[C@H](NC(=O)[C@H](C)NC(=O)[C@@H](NC(=O)[C@@H](NC(=O)[C@H](CCC(=O)O)NC(=O)[C@@H]1CCCN1C(=O)[C@@H]1CCCN1C(=O)[C@H](C)NC(=O)[C@H](CO)NC(=O)[C@H](CO)NC(=O)[C@H](CO)NC(=O)[C@@H]1CCCN1C(=O)[C@@H]1CCCN1C(=O)[C@H](C)NC(=O)[C@@H]1CCCN1C(=O)[C@@H](NC(=O)[C@@H](NC(=O)[C@H](C)NC(=O)[C@H](CO)NC(=O)[C@@H]1CCCN1C(=O)[C@@H](NC(=O)[C@@H]1CCCN1C(=O)[C@@H]1CCCN1C(=O)[C@@H](N)CS)[C@@H](C)O)[C@@H](C)O)[C@@H](C)O)[C@@H](C)O)[C@@H](C)O)C(=O)O; experiment: GalNAc-transferase assay with purified recombinant GalNAc-T4; type: biochemical, human; settings: other: acceptor substrate; pH 7.5
T2 construct: made in house; host or cells: High Five insect cells (baculovirus, pAcGP67 vector)
Method: In the examples, GalNAc-transferase assays were performed in 50 μl total reaction mixtures containing 25 mM cacodylate (pH 7.5), 10 mM MnCl2, 0.1-0.25% Triton X-100, 150-200 μM UDP-[^14C]-GalNAc (4,000 cpm/nmole) (Amersham) and 0.06-1 mM acceptor peptides. […] Products were quantified by scintillation counting after chromatography on Dowex-1, octadecyl silica cartridges (Bakerbond), or HPLC (PC3.2/3 or mRPC C2/C18 SC2.1/10 Pharmacia, Smart System).

Sequence of GalNAc-T2 (Homo sapiens) (chain, as listed by the source): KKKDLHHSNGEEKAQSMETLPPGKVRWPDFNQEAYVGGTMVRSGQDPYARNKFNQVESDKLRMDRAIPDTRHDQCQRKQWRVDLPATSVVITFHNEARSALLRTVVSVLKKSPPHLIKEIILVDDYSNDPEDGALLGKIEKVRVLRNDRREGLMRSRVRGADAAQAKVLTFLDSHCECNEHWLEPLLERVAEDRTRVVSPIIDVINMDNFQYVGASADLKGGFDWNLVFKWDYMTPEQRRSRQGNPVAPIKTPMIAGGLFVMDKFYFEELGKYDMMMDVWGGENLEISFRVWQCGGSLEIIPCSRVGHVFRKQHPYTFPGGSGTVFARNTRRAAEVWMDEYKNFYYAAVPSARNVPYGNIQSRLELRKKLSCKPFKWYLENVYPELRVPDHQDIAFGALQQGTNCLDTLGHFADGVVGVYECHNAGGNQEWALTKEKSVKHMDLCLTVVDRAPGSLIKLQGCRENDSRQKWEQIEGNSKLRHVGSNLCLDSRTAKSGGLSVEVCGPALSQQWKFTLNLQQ
Sequence of GalNAc-T4 (Homo sapiens) (chain, as listed by the source): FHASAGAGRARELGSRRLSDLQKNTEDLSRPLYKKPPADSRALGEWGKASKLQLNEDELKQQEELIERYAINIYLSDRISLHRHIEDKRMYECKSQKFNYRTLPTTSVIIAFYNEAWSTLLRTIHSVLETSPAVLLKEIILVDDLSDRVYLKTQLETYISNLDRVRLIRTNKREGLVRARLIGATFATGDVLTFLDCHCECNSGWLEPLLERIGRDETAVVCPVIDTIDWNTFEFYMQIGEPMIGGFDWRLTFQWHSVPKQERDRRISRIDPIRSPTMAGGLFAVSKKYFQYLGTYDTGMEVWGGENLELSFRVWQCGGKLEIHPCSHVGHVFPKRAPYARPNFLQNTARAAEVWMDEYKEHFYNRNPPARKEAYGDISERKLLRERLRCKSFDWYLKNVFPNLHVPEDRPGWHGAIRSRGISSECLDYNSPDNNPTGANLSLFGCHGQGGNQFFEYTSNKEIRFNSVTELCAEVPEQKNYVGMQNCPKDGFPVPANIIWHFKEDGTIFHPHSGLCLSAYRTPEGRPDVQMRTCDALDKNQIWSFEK

With GalNAc-T2 (Homo sapiens) the Km [1] was 15 µM and the Vmax [1] was 0.64 nmol/min/µg.
Substance GalNAc-T4 (Homo sapiens) has a Km [2] of 480 µM and a Vmax [2] of 0.25 nmol/min/µg.
